Laboratory results from the nanobody polyreactivity screen of Harvey et al. (2022).

Assay: yeast display, Sf9 membrane polyspecificity reagent, FACS + sequencing; frameworks hold sequencing errors
Outline: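 Galactose induction of a Saccharomyces cerevisiae BJ5465 synthetic nanobody display library ran 36–48 hours. The cells were then stained for 1 hour at 4 °C with 10% biotinylated, detergent-solubilized Sf9 membrane reagent, pulled down on streptavidin microbeads and FACS-sorted into low and high (top ~1%) gates on expression and reagent-binding fluorescence. Labels for polyreactivity follow the gate of origin.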

Sequence	polyreactivity (PSR sort gate)
QVQLVESGGGLVQAGGSLRLSCAASGSTFWSYAMGWYRPAPGKERELVAAITSGGRTYYADSVKGRFTISRDNAKNTVYLQMNSLKPEDTAVYYCAAEGSVGLYGLIMHYWGQGTQVTVSS	high polyreactivity
QVQLVESGGGLVQAGGSLRLSCAASGSTFWSYAMGWYRQAPGKERELVASISRRGGSTSYADSVKGRFTISRDNAKNTVYLQMNSLKPEDTAVYYCAARLLRTTKPRSGYGYWGQGTQVTVSS	high polyreactivity
QVQLVESGGGLVQAGGSLRLSCAASGSTFWTNAMGWYRQAPGKERELVAAISRSGGSTYYADSVKGRFTISRDNAKNTVYLQMNSLKPEDTAVYYCNAVLPYYRGSHYDYWGQGTQVTVSS	high polyreactivity
QVQLVESGGGLVQAGGSLRLSCAASGSTFWTNDMGWYRQAPGKERELVAAISQSAGDTYYADSVKGRFTISRDNAKNTVYLQMNSLKPEDTAVSYCAADLVFYPFTWDGYYYWGQGTQVTVSS	low polyreactivity
QVQLVESGGGLVQAGGSLRLSCAASGSTFWVNAMGWYRQAPGKERELVAAISERGGRTYYADSVKGRFTISRDNAKNTVYLQMNSLKPEDTAVYYCNRVTRSNVDYWGQGTQVTVSS	high polyreactivity
QVQLVESGGGLVQAGGSLRLSCAASGSTFWVNAMGWYRQAPGKERELVAAITVRGTSTYYADSVKGRFTISRDNAKNTVYLQMNSLKPEDTAVYYCAADTPSNSHDYWGQGTQVTVSS	low polyreactivity
QVQLVESGGGLVQAGGSLRLSCAASGSTFWVNARGWYRQAPGKERELVAAIRRGGSTKYADSVKGRFTISRDNAKTTVYLQMNSLKPEDTAVYYCAADSYRTPAIYDYWGQGTQVTVSS	high polyreactivity
QVQLVESGGGLVQAGGSLRLSCAASGSTFWVYAMGWYRQAPGKERELVAGISNSGGNTYYADSVKGRFTISRDNAKNTVYLQMNSLKPEDTAVYYCNVDRGNPVPPSEYWGQGTQVSVSS	low polyreactivity
QVQLVESGGGLVQAGGSLRLSCAASGSTFWWTTMGWYRQAPGTERELVAAITTGGGTYYADSVKGRFTISRDNAKNTVYLQMNSLKPEDTAVYYCNADYDSQYHYLLRYDYWGQGTQVTVSS	low polyreactivity
QVQLVESGGGLVQAGGSLRLSCAASGSTFWWYAMGWYRPAPGKERELVARISNGGGTNYADSGKGRFTISRDNEKNSVFLQMNSLIPEDTAVYYCAATVGVAYYENDYWGQGTQVTVSS	low polyreactivity
QVQLVESGGGLVQAGGSLRLSCAASGSTFWYNTMGWYRQAPGKERELVAAITSSGGSTYYADSVKGRFTISRDNAKNTVYLQMNSLKPEDTAVYYCNALHTRTGVKARYYYWGQGTQVTVSS	high polyreactivity
QVQLVESGGGLVQAGGSLRLSCAASGSTFWYYDMGWYRQAPGKERELVAAITSGGRTNYADSVKGRFTISRDNAKNTVYLQMNSLKPEDTAVYYCNAVSYGKYVFQDGDYWGQGTQVTVSS	high polyreactivity
QVQLVESGGGLVQAGGSLRLSCAASGSTFWYYDMGWYRQAPGQERALVAASTSGGRTNYADSVKGRVTISRDKAKNTVYLQMNSLKPEDTAVYYCARTSYRFYRKRYYWGQGTQVTVSS	high polyreactivity
QVQLVESGGGLVQAGGSLRLSCAASGSTFWYYGMGWYRQAPGKEMELVARINWSTGRTYYADSVKGRFTISRDTAKNTVYLQMNSLKPEDTAVYYCNALNPYKGQEAHYDYWGQGTQVTVSS	high polyreactivity
QVQLVESGGGLVQAGGSLRLSCAASGSTFWYYTMGWYRQAPGKERELVAGITSGGSTYYADSVKGRFTISRDNAKNTVYLQMNSLKPEDTAVYYCAKRYYGRGYYYWGQGTQVTVSS	high polyreactivity
QVQLVESGGGLVQAGGSLRLSCAASGSTFYANAMGWYRQAPGKERELVAAITRSGAGTYYADSVKGRFTFSRDNAKNTVYLQMNSLKPEDTAVYYCATRYGQWGQGTQVTVSS	high polyreactivity
QVQLVESGGGLVQAGGSLRLSCAASGSTFYANAMGWYRQAPGKERELVAEISFSGASTFYADSVKGRFTISRDNAKNTVYLQMNSLKPEDTAVYYCATANPSVVGFDYWGQGTQVTVSS	low polyreactivity
QVQLVESGGGLVQAGGSLRLSCAASGSTFYANPMGWYRQAPGKERELLAAITSGGSTNYADSVKGRFTISRDNAKITVYLQMISLKPEDTAVYYCATQVNRERHAEDYWGQGTQVTVSS	low polyreactivity
QVQLVESGGGLVQAGGSLRLSCAASGSTFYAYAMGWYRPAPGKERELVAAISSDGTNYADSVKGRFTISRDNAKNTVYLQMNSLKPEDTAVYYCAADLLLYSSQDNDYWGQGTQVTVSS	low polyreactivity
QVQLVESGGGLVQAGGSLRLSCAASGSTFYAYAMGWYRQAPGKERELVAAIRRSTGRTYYADSVKGRFTISRDNAKNTVYLQMNSLKPEDTAVYYCAASYPVDYYDMYYWGQGTQVTVSS	high polyreactivity
QVQLVESGGGLVQAGGSLRLSCAASGSTFYAYAMGWYRQAPGKERELVAAISSDGTNYADSVKGRFTISRDNAKNSVNLQMNSLKPVDTAVYYCAADLLLYSSQDNDYWGQGTQVTVSS	low polyreactivity
QVQLVESGGGLVQAGGSLRLSCAASGSTFYAYAMGWYRQAPGKERELVARIRWRGGRTYYADSVKGRFTISRDNAKNTVYLRMNSLKPEDTAVYYCNRGYYSYYGRYYYWGQGTQVTVSS	high polyreactivity

Sequence	polyreactivity (PSR sort gate)
QVQLVESGGGLVQAGGSLRLSCAASGSTFYAYAMGWYRQAPGKERELVAVITSSGSTYYADSVKGRFTISRDNAKNTVYLQMNSLKPEDTAVYYCAAKRLSQSRRTQFRTRYPPMYYWGQGTQVTVSS	high polyreactivity
QVQLVESGGGLVQAGGSLRLSCAASGSTFYAYAMGWYRQAPGKGGELVAAIDSGGSTYYADSVKGRFTISRDNAKNTVYLQMNSLKPEDTAVYYCAVRHRYTRAYWGRDYWGQGTQVTVSS	low polyreactivity
QVQLVESGGGLVQAGGSLRLSCAASGSTFYAYAMGWYSQAPGKERELVAAITRSGGSTYYADSVKGRFTISRDNAKNTVYLQMNSLKPEDTDVYYCNKYGYKGGVGYDYWGQGTQVTLSS	high polyreactivity
QVQLVESGGGLVQAGGSLRLSCAASGSTFYDNAMGWYRQAPGKERELVAAINWSSDTTYYADSVKGRFTISRDNAKNTVYLQMNSLKPEDTAVYYCATDSAYRGYDYWGQGTQVTVSS	low polyreactivity
QVQLVESGGGLVQAGGSLRLSCAASGSTFYDYAMGWSRQAPGKERELVAAINGNGDSTYYADSVKGRFTISRDNAKITVYLLMNSLKPEDTAVYDCAAYLGWGYDYWGQGTQVTVSS	low polyreactivity
QVQLVESGGGLVQAGGSLRLSCAASGSTFYDYAMGWYRQAPGKERELVAAISRGGSTYYADCVKGRFTISRDNAKNTVYLQMNSLKPEDTAVYYCAAGRSYDSGFYYWGQGTQVTVSS	low polyreactivity
QVQLVESGGGLVQAGGSLRLSCAASGSTFYDYAMGWYRQAPGKERVLVAAISTSGGSTYADSVYGRFTISRDNAKNTVYLQMNSLKPEDTAVYYCNADDPGYAVPWYWFKYDYWGQGTQVTVSS	low polyreactivity
QVQLVESGGGLVQAGGSLRLSCAASGSTFYDYAMGWYRQAPGKESELVAAITSSGASTYYADSVKGRFTISRDNAKNTVYLQMNSLKPEDTAVYYCAARKVWRSIRVALDYWGQGTQVTVSS	high polyreactivity
QVQLVESGGGLVQAGGSLRLSCAASGSTFYEYAMGWYRQAPGKERELVAAITSGGSTYYADSVKGRFTISRDNAKNTVYLQMNSLKPEDTAVYYCAADPRIRRGDRSTHGYDYWGQGTQVTVSS	low polyreactivity
QVQLVESGGGLVQAGGSLRLSCAASGSTFYFIAMGWFRQAPGKEWELVAVIDGSGGFTYYADSVKGRFTISRDNAKNTVYLQMNSLKPEDTAVYYCAADKTQSHYDDWGQGTQVTVTS	high polyreactivity
QVQLVESGGGLVQAGGSLRLSCAASGSTFYFNAMGWYRQAPGKARELVAAIDWSGGSTYYADSVKGRFTISRDNAKNTVYLQMNSLKPEDTAVYYCAAPYHYYGNTVGYADYDYWGQGTQVTVSS	low polyreactivity
QVQLVESGGGLVQAGGSLRLSCAASGSTFYFNAMGWYRQAPGKERELVAGIRYSGSSTYYADSVKGRFTISRDNAKNTVYLQMNSLKPVDTAVYYCAASLWRWRFSGFGYWGQGTQVTVSS	high polyreactivity
QVQLVESGGGLVQAGGSLRLSCAASGSTFYFYVLGWYRQAPGKERELVAAISWGGASTYYAVSVKGRFTISRDHAKNTVYLQLNSLKPEDTAVYNCTDRLRVRYDYWGQGTQVTVSS	low polyreactivity
QVQLVESGGGLVQAGGSLRLSCAASGSTFYGNAMAWYRQAPGKEREFVAAISSGGRTYYADSVKGRFTISRDNAKNTVYLQMNSLKPEDTAVYYCAVRRSAFYARFGRNYWGQGTQVTVSS	low polyreactivity
QVQLVESGGGLVQAGGSLRLSCAASGSTFYGYAMGGYRQAPGKERELVAAISSSGGTTYYADSVKGRFTMSRDNAKNTVYLQMNSLKPEDTAVYYCAARRRSGTYWRSANDYWGQGTQVTVSS	high polyreactivity
QVQLVESGGGLVQAGGSLRLSCAASGSTFYGYAMGWYRQAPGKDRELVAAISSGGRTNYADSVKGRFTISRDNAKNTVYLQLHSLKPEDTAVYYCNARRIYGWWEFDYWGQGTQVTVSS	low polyreactivity
QVQLVESGGGLVQAGGSLRLSCAASGSTFYGYTMGWYRQAPGKERELVAAISWRGGSTYYADSVKGRFTISRDNAKNTVYLQMNSLKPEDTAVYYFAARPYIVTYPWRRYDYWGQGTQVTVSS	high polyreactivity
QVQLVESGGGLVQAGGSLRLSCAASGSTFYGYTMGWYRQATGKERELVAVITYGGSTYYADSVKGRFTISRDNAKNTVYLQMNSLKPEDTAVYYCAKRYAYPAYGRPWRIGRTYDYWGQGTQVTVSS	low polyreactivity
QVQLVESGGGLVQAGGSLRLSCAASGSTFYGYVMGWYRQAPGKERELVAAITWRGTSTYYADSVKGRFTISRDNAKNTVYLQMNSLKPEDTAVYYCRGYYDRDVDYWGQGTQVTVSS	high polyreactivity
QVQLVESGGGLVQAGGSLRLSCAASGSTFYGYVMGWYRQAPGKERELVAGITRGGSTNYADSVKGRFTISRDNAKNTVYLQMNSLKPEDTAVYYCATRYFSRYYYWGQGTQVTVSS	high polyreactivity
QVQLVESGGGLVQAGGSLRLSCAASGSTFYHYAMGWYRQAPGKERELVAAISWSGGSTYYADSVKGRFTISRDNAKNTVYLQMNSLKPEDTAVYYCNKAGRSWFRTGLGYWGKGTQVTVSS	high polyreactivity
